From US20230257716A1 (priority 2020, published 2023)

What was measured:
[1] = test system: basal organoids; assay: Growth factor evaluation for basal organoids after sedimentation and clonogenic culture; format: cell-based, human; details: pure basal cell cultures; EGF and Noggin together
Description: (§1) Screening exogenous growth factors in organoid culture.
Density sedimentation of basal cells. Organoid cultures within 2-3 weeks of primary plating were dissociated with 1 U/ml neutral protease (Worthington, Cat LS02100) and 100 KU of DNase I in organoid media. Basal organoids were then collected by gravity sedimentation and the supernatant was either aspirated or collected for downstream use. Basal organoids were then further fractionated on a custom Ficoll-Paque gradient (4 vol Ficoll-Paque to 1 vol PBS) and centrifuged at 300×g for 10 minutes at room temperature. The supernatant was aspirated and the organoid pellet was resuspended in 10 ml PBS in a 15 ml conical tube, collected by gravity sedimentation, and plated into ECM as described above.

[2] = test system: human distal lung organoids; assay: Screening exogenous growth factors in distal lung organoid culture; format: cell-based; details: single cell suspensions of distal lung, feeder-free; EGF and NOGGIN in combination
Description: as §1

[3] = test system: AT2 organoids; assay: AT2 organoid proliferation with niche factors and PORCUPINE inhibitor; details: EGF and NOGGIN together; WNT-3A and RSPONDIN-1 added exogenously
Description: Screening exogenous growth factors in organoid culture. Distal airway cells were isolated and plated as above with the following exceptions: ADMEM/F12 was used instead of organoid medium during elastase digestion of lung tissue, cells were serially diluted and filtered through a 40 micron cell strainer and counted with a hemocytometer. 1000 viable epithelial cells (by Trypan blue exclusion, size, and morphology) per μL ECM were plated per 5 μL Matrigel droplet per well. Base media consisted of organoid media lacking A83-01, EGF, NOGGIN, WNT3A or RSPO1. EGF (final 50 ng/ml, R&D), NOGGIN (final 100 ng/ml, R&D), WNT3A (final 100 ng/ml, R&D), RSPO1 (final 500 ng/ml, Peprotech) or the PORCUPINE inhibitor C59 (final 1μM, Biogems) were added singly or in combination to base media. Images were obtained ten days after primary plating with an inverted light microscope at 5X magnification. Each condition was plated in quadruplicate and organoid formation was quantified using the analyze particle (threshold=4902 pixels) plugin in ImageJ as previously described.

Molecule | basal organoid growth with exogenous growth factors [1] | distal lung organoid growth with exogenous growth factors [2] | clonal AT2 organoid proliferation with exogenous growth factors [3]
R-SPONDIN1: exogenous growth factor R-spondin 1 (Peprotech) (protein, UniProt Q2MKA7 21-263, looked up) R-spondin-1: SRGIKGKRQRRISAEGSQACAKGCELCSEVNGCLKCSPKLFILLERNDIRQVGVCLPSCPPGYFDARNPDMNKCIKCKIEHCEACFSHNFCTKCKEGLYLHKGRCYPACPEGSSAANGTMECSSPAQCEMSEWSPWGPCSKKQQLCGFRRGSEERTRRVLHAPVGDHAACSDTKETRRCTVRRVPCPEGQKRRKGGQGRRENANRNLARKESKEAGAGSRRRKGQQQQQQQGTVGPLTSAGPA | without additive effects | without any additional growth-promoting effects | did not enhance growth
WNT3A: exogenous WNT growth factor (R&D) (protein, UniProt P56704 19-352, looked up) Protein Wnt-3a: SYPIWWSLAVGPQYSSLGSQPILCASIPGLVPKQLRFCRNYVEIMPSVAEGIKIGIQECQHQFRGRRWNCTTVHDSLAIFGPVLDKATRESAFVHAIASAGVAFAVTRSCAEGTAAICGCSSRHQGSPGKGWKWGGCSEDIEFGGMVSREFADARENRPDARSAMNRHNNEAGRQAIASHMHLKCKCHGLSGSCEVKTCWWSQPDFRAIGDFLKDKYDSASEMVVEKHRESRGWVETLRPRYTYFKVPTERDLVYYEASPNFCEPNPETGSFGTRDRTCNVSSHGIDGCDLLCCGRGHNARAERRREKCRCVFHWCCYVSCQECTRVYDVHTCK | without additive effects | without any additional growth-promoting effects | did not enhance growth
NOGGIN: recombinant human NOGGIN, BMP antagonist (protein, UniProt Q13253 28-232, looked up) Noggin: QHYLHIRPAPSDNLPLVDLIEHPDPIFDPKEKDLNETLLRSLLGGHYDPGFMATSPPEDRPGGGGGAAGGAEDLAELDQLLRQRPSGAMPSEIKGLEFSEGLAQGKKQRLSKKLRRKLQMWLWSQTFCPVLYAWNDLGSRFWPRYVKVGSCFSKRSCSVPEGMVCKPSKSVHLTVLRWRCQRRGGQRCGWIPIQYPIISECKCSC | sufficient for maximal growth | optimal | sufficient for clonal AT2 organoid proliferation
